Assay results reported in US9664676B2, “RNA sequences that induce fluorescence of small molecule fluorophores” (Cornell University, priority 2013, dated 2017).
*1 amine or outer side, *2 acyl side, *3 side chain or, on linkers, in order; H or OH if unused. Where a SMILES comes first, the peptide text is derived from it. Bridges are numbered along the chain shown (N, C = ends). Roman numbers before positions name the chains, in order. [ ]: non-standard residue; d: D form. Actinocin(9to1) = Cc1c2oc3c(C)ccc(C(=O)[*:1])c3nc-2c(C(=O)[*:2])c(N)c1=O; NMeV = CN[C@H](C(=O)O)C(C)C; Sar = CNCC(=O)O

Key:
[1] = system: COS-7 cells; assay: Analysis of DFHBI cell permeability; assay type: in vitro ADME; conditions: mammalian cells, 20 μM DFHBI
Method: Analysis of DFHBI Cell Permeability: COS-7 cells were transfected with pCDNA-60CGG-Spinach2. 24 h after transfection, cells were imaged in medium supplemented with 25 mM HEPES, 5 mM MgSO4, 1 μg/ml Hoechst 33342 and 20 μM DFHBI. Images were acquired for Hoechst and Spinach2 signals every 5 min for 1 h for 20 cells. All signals were first normalized to area and then normalized to the highest signal for a given nucleus to determine the time for maximal signal to be reached.

[2] = system: COS-7 cells; assay: Live cell imaging of (CGG)60-Spinach / (CGG)60-Spinach2 in COS-7 cells; assay type: cell-based; conditions: at 8 h, 1 μg/ml
Method: Transfection of COS-7 Cells and Live Cell Imaging: COS-7 cells (ATCC-CRL-1651) were cultured and passaged in DMEM supplemented with 50 units of penicillin and 50 μg of streptomycin per milliliter. […] Cells were imaged in CO2-independent medium (Invitrogen) supplemented with L-glutamine. At 30 min-1 h before imaging, medium was supplemented with 25 mM HEPES, 5 mM MgSO4, 1 μg/ml Hoechst 33342 (when appropriate) and 20 μM DFHBI or vehicle. […] Spinach was imaged with a filter cube typically used for fluorescein or EGFP, with a sputter-coated excitation filter 470/40 nm, dichroic mirror 495 nm (long-pass), and emission filter 525/50 (Chroma Technology). DsRed-Max and mCherry were imaged using a filter cube typically used for Texas Red, with a sputter coated excitation filter 560/40 nm and emission filter 630/75 nm (Chroma Technology). Background intensity was subtracted from all pixel intensity measurements. Image analyses were completed with NIS-Elements AR 3.2 (Nikon). Drug treatments were carried out as specified. […] DMSO was added to a final concentration of 0.1% for vehicle treatments. […] After 2 h, the transfection medium was replaced with imaging medium containing DFHBI.

[3] = In-gel imaging of tBroccoli and tdBroccoli (DFHBI-1T / SYBR Gold staining); assay type: biochemical; conditions: in vitro transcribed tBroccoli and tdBroccoli in PAGE gel
Method: In-Gel Imaging of Spinach-Containing RNAs: Total bacterial RNA was purified using Trizol LS reagent (Life Technologies) following the manufacturer's protocol. Typically, 200-500 ng of total RNA or 50-100 ng of in vitro transcribed RNA was loaded into a well of precast 6% TBE-Urea Gel (Life Technologies) and ran at 270-300 V in 1×TBE buffer. RiboRuler Low Range RNA Ladder (Thermo Scientific) was used as band size standard.
After the gel was run to completion, the gel was washed 3×5 min with water and then stained for 30 min in 10 μM DFHBI or DFHBI-1T in buffer containing 40 mM HEPES pH 7.4, 100 mM KCl, 1 mM MgCl2. Then gel was imaged using a ChemiDoc MP with 470/30 nm excitation and 532/28 nm emission. Next, to see all the RNA in the sample, the gel was again washed 3×5 min with water followed by staining for 30 min with SYBR Gold (or Green) dye (Life Technologies) diluted 1/10000 in TBE buffer. Then gel was imaged under the same instrument using preset SYBR Gold (or Green) channel (302 nm excitation and 590/110 nm emission). Gel bands intensities were quantified in Image Lab 5.0 software (Bio-Rad). The bacterial 5S rRNA band was used for loading normalization.

[4] = system: E. coli; assay: Fluorescence measurements of E. coli (colonies, suspensions) expressing aptamers with DFHBI-1T; assay type: cell-based, Escherichia coli; conditions: tRNA fusions, suspension/plate reader, DFHBI-1T
Method: Fluorescence Measurements of E. coli: Fluorescence measurements of E. coli were done in two general ways. To assess fluorescence brightness of bacterial colonies on a plate Acella or LMG194 strains cells were transferred to a new LB/agar dish with respective antibiotic and allowed to grow overnight at 37° C. Typically four to six colonies for the same aptamer were grown on the same plate to provide statistical data. These plates already contained 40 μM DFHBI-1T (or DFHBI) and 0.2% arabinose (in case of LMG194 strain). When Acella strain was used, 1 mM IPTG was added the next morning and incubation was continued for four to six hours more at 37° C. Bacterial colonies were then imaged under ChemiDoc MP imager as described above and images were processed in ImageJ program.
To measure fluorescence of bacterial cell suspensions BL21 Star (DE3) (Life Technologies) strain and pET28c-based expression plasmids were used. This combination provided the strongest signal. Fresh colony was inoculated into LB media with kanamycin and allowed to grow overnight at 37° C. to OD600 0.4. The cells were then induced with addition of 1 mM IPTG for 2-4 h at 37° C. After induction, cells were normalized for cell density and incubated with 400 μM DFHBI-1T. Cells were then measured for total fluorescence using a Genios Pro plate reader at 465 nm excitation and 535 nm emission. All values were normalized for slightly different excitation and emission spectra of Spinach2 and Broccoli.

[5] = system: HEK293T cells; assay: Flow cytometry of HEK293T cells expressing 5S rRNA-aptamer fusions with DFHBI-1T; assay type: cell-based; conditions: flow cytometry
Method: FIG. 24 illustrates the quantification of the flow cytometry analysis of aptamers expression in mammalian cells. To compare specific aptamers' brightness in mammalian cells, HEK293T cells were transfected with two plasmids: one expressing aptamer (with or without tRNA) fused to 5S rRNA and another expressing mCherry fluorescent protein. Cells were then treated with 40 μM DFHBI-1T and analyzed on FACSAria III instrument in two channels: green (ex=488 nm; em=525±50 nm) and red (ex=561 nm and em=610±20). For quantification, mean fluorescent signal of the non-negative population was calculated and then mean fluorescent signal of the negative population was subtracted from it to assess specific, not background fluorescent signal. Finally, this number was multiplied by the percentage of the non-negative population to provide the total fluorescent signal of the non-negative population. These numbers are plotted on the bar graph above. Where indicated, cells were also pre-treated with 5 mM MgSO4. Error bar indicates robust SD calculated by FlowJo program, used for data analysis.
Imaging 5S-tBroccoli and 5S-t-tdBroccoli: Plasmids were transfected into HEK293T cell using FuGENE HD reagent (Promega) following manufacture's protocol. Cell imaging was carried out as previously described for 5S-Spinach (Paige et al., “RNA Mimics of Green Fluorescent Protein,” Science 333(6042): 642-6 (2011), which is hereby incorporated by reference in its entirety) with DFHBI-1T instead of DFHBI. […]
Flow cytometry was used to quantify average brightness of tRNA. Transfected cells were analyzed in two channels: green (ex=488 nm; em=525±50 nm) and red (ex=561 nm; em=610±20). […] As evidenced from FIG. 14A, 5S-tBroccoli and 5S-tdBroccoli are clearly detectable in the green fluorescence channel and this specific signal appears only upon cells treatment with DFHBI-1T (FIG. 23).

[6] = In vitro fluorescence activation of DFHBI-1T by 29-1 and truncation mutants; assay type: biochemical; conditions: bound to DFHBI-1T
From the text: (§1) In Vitro Characterization of Aptamers: dsDNA from the brightest bacterial cells in a library was PCR amplified from eluted plasmids. Truncation, deletion and point mutation mutants were generated from dsDNAs PCR amplified based on respective ssDNA templates (Protein and Nucleic Acid Facility, Stanford University Medical Center). Primers were designed so the PCR product contained T7 promoter sequence. When indicated, dsDNA or ssDNA also contained tRNA scaffold part. PCR products were then purified with PCR purification columns (Qiagen) and in vitro transcribed utilizing AmpliScribe T7-Flash Transcription Kit (Epicenter). RNA was purified using Bio-Spin columns (Bio-Rad), and quantified using both absorbance values and the Quant-iT RiboGreen RNA Assay Kit (Life Technologies).
All in vitro RNA properties were measured in 40 mM HEPES pH 7.4, 100 mM KCl, 1 mM MgCl2 buffer unless specified separately. All values presented are averaging of at least three independent experiments, error bars are standard deviations.
(§2) To measure the fluorescence of aptamer-fluorophore complexes, an approach that overcomes potential confounding effects of incomplete RNA folding was used. The fluorescence of RNA-fluorophore complexes can be measured in either of two ways: using “excess RNA” or “excess fluorophore” (Ponchon et al., “Recombinant RNA Technology: the tRNA Scaffold,” Nat. Methods 4(7): 571-6 (2007), which is hereby incorporated by reference in its entirety). In an “excess RNA” experiment enough RNA was added to ensure that all the fluorophore (e.g. 1 μM) is bound to the RNA even if a sizeable portion of the RNA is unfolded. As a result, one can be confident that a 1 μM RNA-fluorophore complex is present, and one can therefore calculate the “molar brightness,” the fluorescence of a specific concentration of RNA-fluorophore complex independent of RNA folding. In the case of excess fluorophore experimental conditions were reversed and 1 μM of RNA was used with a vast excess of the fluorophore. In this case, the amount of RNA-fluorophore complex is highly dependent on the amount of RNA that is folded.

[7] = Folding measurements with DFHBI-1T; assay type: physicochemical; conditions: in vitro folding assay
Method: Briefly, fluorescence intensity of two solutions were compared: the one having excess of the dye and limiting amount of RNA and the other with excess of RNA and limiting amount of the dye. 1 μM of 1T (or RNA) and 20 μM of RNA (or 1T) was used. Signal from the first condition (limiting RNA) was divided by the signal from the second condition (limiting dye) to determine the fraction folded. To measure folding in a context of different flanking sequences RNA was generated from separate dsDNA fragments. These fragments were PCR amplified to have β-actin, 5S rRNA and 7SK RNA sequences on either or both sides of Broccoli. The folding assay then proceeded as described above.
as §2

[8] = Fluorescence of aptamers bound to DFHO; assay type: biochemical
Method: To explore this phenomenon further, a library containing over 10 million mutants of this sequence was prepared. Each of the sequences was individually expressed in E. coli bacteria. The bacteria was incubated with the fluorophore DFHO and then sorted based on their fluorescent signal on a fluorescence-activated cell sorting (FACS) instrument. Analysis of the mutations introduced into the 29-1 aptamer allowed prediction of the core sequence necessary for binding DFHO. The possibility that the core binding sequence for DFHO fluorophore is the same as for the DFHBI fluorophore was also considered. The core binding sequence for DFHBI fluorophore is identified in preceding Example 21.

[9] = In vitro fluorescence activation of DFHBI by 29-1; assay type: biochemical; conditions: bound to DFHBI
From the text: as §1
All in vitro RNA properties were measured in 40 mM HEPES pH 7.4, 100 mM KCl, 1 mM MgCl2 buffer unless specified separately. […]
To measure the fluorescence of aptamer-fluorophore complexes, an approach that overcomes potential confounding effects of incomplete RNA folding was used. The fluorescence of RNA-fluorophore complexes can be measured in either of two ways: using “excess RNA” or “excess fluorophore” (Ponchon et al., “Recombinant RNA Technology: the tRNA Scaffold,” Nat. Methods 4(7): 571-6 (2007), which is hereby incorporated by reference in its entirety). […]

CC1=NC(=Cc2cc(F)c(O)c(F)c2)C(=O)N1C [DFHBI, 4-(3,5-difluoro-4-hydroxybenzylidene)-1,2-dimethyl-imidazol-5-one]
time to maximal fluorescence (ability to enter cells) [1]: ~30 min

Cc1c2oc3c(C)ccc(C(=O)N[C@@H]4C(=O)N[C@H](C(C)C)C(=O)N5CCC[C@H]5C(=O)N(C)CC(=O)N(C)[C@@H](C(C)C)C(=O)O[C@@H]4C)c3nc-2c(C(=O)N[C@@H]2C(=O)N[C@H](C(C)C)C(=O)N3CCC[C@H]3C(=O)N(C)CC(=O)N(C)[C@@H](C(C)C)C(=O)O[C@@H]2C)c(N)c1=O [actinomycin D] (I: T[dV]P[Sar][NMeV] / II: T[dV]P[Sar][NMeV]; ester I:1-I:C, II:1-II:C; linker I:N-II:N via Actinocin(9to1))
cytotoxicity in COS-7 cells [2]: cytotoxicity was observed

B1: dBroccoli: dimeric Broccoli, SEQ ID NO: 12 (nucleic acid)
chain: GAGACGGUCGGGUCCAUCUGAGACGGUCGGGUCCAGAUAUUCGUAUCUGUCGAGUAGAGUGUGGGCUCAGAUGUCGAGUAGAGUGUGGGCUC
modifications: listed as RNA, chemistry not fully specified
fluorescence compared to monomeric Broccoli [3]: almost twice the fluorescence as the monomeric Broccoli | fluorescence of aptamer-expressing E. coli cells [4]: approximately twice as fluorescent as cells expressing Broccoli | detection in HEK293T cells of 5S fusions without tRNA scaffold [5]: can be detected in cells

B2: 29-1: 99-nucleotide RNA aptamer from SELEX-FACS, SEQ ID NO: 3 (nucleic acid)
chain: GGAGACGCAACUGAAUGAAAUGGUGAAGGAGACGGUCGGGUCCAGGCACAAAAAUGUUGCCUGUUGAGUAGAGUGUGGGCUCCGUAACUAGUCGCGUCAC
modifications: listed as RNA, chemistry not fully specified
emission (em) [6]: 507 nm | excitation (ex) [6]: 472 nm | percent folded [7]: 81% | effect on DFHO fluorescence [8]: significantly enhancing its fluorescence | emission (em) [9]: 501 nm | excitation (ex) [9]: 450 nm
